Laboratory results published in patent US20260022160A1 (AFFYXELL THERAPEUTICS, published 2026).
Where “and” joins values, the source holds several entries; their conditions need not be identical. Equal entries are not always repeated. Each block holds one binder with its values, some of them ahead of it.

Tests used:
[1] = biological target: T1, human Mega CD40L recombinant protein (Enzo Lifesciences) (human, UniProt P29965 116-261); assay: cell-based or functional assay
T1 sequence (looked up): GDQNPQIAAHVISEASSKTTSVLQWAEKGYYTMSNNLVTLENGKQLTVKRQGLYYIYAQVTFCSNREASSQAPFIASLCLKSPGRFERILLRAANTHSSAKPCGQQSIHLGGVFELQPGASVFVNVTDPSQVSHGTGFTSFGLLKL

[2] = biological target: T1, human Mega CD40L recombinant protein …; assay: cell-based or functional assay; remark: listed apart in the source
[3] = biological target: T2, recombinant human CD40L (R&D Systems, 6420-CL-025/CF) (human, UniProt P29965 108-261, limits assumed); assay: binding ELISA, plate-coated recombinant human CD40L, concentrated culture fluid; first-named of the two gene-introduced cell lines (two promoters); promoter not told
T2 sequence (looked up): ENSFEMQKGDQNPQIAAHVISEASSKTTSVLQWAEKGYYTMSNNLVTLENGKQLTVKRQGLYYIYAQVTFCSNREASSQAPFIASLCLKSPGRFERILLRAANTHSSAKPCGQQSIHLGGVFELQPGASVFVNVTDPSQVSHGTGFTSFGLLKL
Protocol: (§1) Each cell line was inoculated into a T175 flask at a cell density of 4.0×10³ cells/cm² using a culture medium. After culture at 37° C. and 5% CO₂ for 18 to 24 hours, the culture medium was thoroughly replaced with a fresh culture medium every 2 days, followed by culture. After culture for 3 days, the cells were harvested, and 7.0×10⁶ cells were inoculated into a T175 flask, followed by culture at 37° C. and 5% CO₂ for 18 to 24 hours. The culture medium was thoroughly removed, and the remaining medium was completely removed through washing with 10 mL of MEM alpha. 30 mL of an MEM alpha medium was added to a T175 flask, followed by culture for 48 hours. After 48 hours, all of the cell culture fluid was harvested and then centrifuged to remove residual cells and impurities. The cell culture fluid was transferred to a Vivaspin 20 and centrifuged, the culture fluid was concentrated, and the stefin A protein variant was quantified through sandwich ELISA (LSBio, LS-F4620). […] The unbound stefin A protein variant was removed through washing, after which the extent of binding between the stefin A protein variant and CD40L was detected based on a difference in absorbance resulting from reaction with a TMB substrate.

[4] = biological target: T2, recombinant human CD40L (R&D Systems, …); assay: binding ELISA, plate-coated recombinant human CD40L, concentrated culture fluid; second-named of the two gene-introduced cell lines (two promoters); promoter not told
Protocol: as §1

[5] = biological target: T3, human CD40L (human, UniProt P29965 113-261, limits assumed); assay: ELISA on plate-coated hCD40L in the presence of HSA (10 uM), detection with anti-cystatin antibody, OD 450-630 nm
T3 construct: also called hCD40L; huCD40L
T3 sequence (looked up): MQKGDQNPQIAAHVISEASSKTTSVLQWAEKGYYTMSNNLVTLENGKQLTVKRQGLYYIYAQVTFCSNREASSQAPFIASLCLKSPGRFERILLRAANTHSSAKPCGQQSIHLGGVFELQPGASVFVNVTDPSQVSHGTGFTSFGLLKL

[6] = biological target: T3, human CD40L; assay: ELISA on plate-coated hCD40L, no HSA, detection with anti-cystatin antibody, OD 450-630 nm
Protocol: After a last washing step, TMB was added for the development of the experiment and the plates were read at 450 nm. The EC50 was then calculated using the interpolated non-linear four-parameters standard curve (FIG. 12C).

[7] = biological target: T4, human serum albumin (human, UniProt P02768 25-609); assay: bridging ELISA: binder captured on plate-coated hCD40L, HSA 10 uM, bound HSA detected with anti-HSA antibody
T4 construct: also called HSA
Protocol: (§2) After saturation with 5% casein/PBS buffer, the plates were washed and a dilution of Stefin A protein variant or controls was incubated with HSA at a final concentration of 10 μM for 90 minutes. Plates were then washed, and a […], anti-HSA (HRP-conjugated) (Abcam), was added for 90 minutes. After a last washing step, TMB was added for the development of the experiment and the plates were read at 450 nm. The EC50 was then calculated using the interpolated non-linear four-parameters standard curve (FIG. 12C).

[8] = biological target: T3, human CD40L; assay: cell-based or functional assay
[9] = biological target: T3, human CD40L; assay: competitive ELISA: hCD40L (1 nM) premixed with the binder and added to plate-coated rhCD40 Fc; bound hCD40L detected with biotinylated anti-hCD40L polyclonal antibody
Protocol: To evaluate the avidity of the different formats, a CD40L competitive ELISA was performed. Briefly, the plates were coated with rhCD40 Fc at 1 μg/ml and incubated overnight at 4° C. The plates were washed twice with 150 μl of washing buffer (PBS, Tween 20 0.1%) with a plate washer and saturated with Casein 5% (Sigma) in PBS for 90 minutes at room temperature (25±1° C.). […] The resulting solution was then mixed and added to the plates. The plates were washed 3 times as described previously. […] The plates were incubated for 90 minutes at room temperature (25±1° C.). The plates were then washed. PolyHRP-Streptavidin was then diluted in dilution buffer and added to the plates. The plates were incubated an additional 90 minutes at room temperature (25±1° C.). Plates were washed 3 times as described previously and the substrate (TMB, Pierce Thermo-Scientific) was added in the plate for 10 minutes. The reaction was stopped using an acidic solution and the plates were read at 450-630 nm and the resulting percent inhibition was calculated.

[10] = biological target: T3, human CD40L; assay: bridging ELISA: capture on plate-coated hCD40L, HSA 10 uM, detection with anti-HSA antibody, OD 450-630 nm
Protocol: as §2

[11] = biological target: T3, human CD40L; assay: direct binding ELISA on plate-coated hCD40L (5 ug/ml), detection biotinylated anti-cystatin A antibody + polyHRP-streptavidin, OD 450-630 nm; the table prints 268, the curve legend prints Clone -288 in its place
Protocol: Plates were washed 2 times with 150 μl of washing buffer (PBS, Tween 20 0.1%) with a plate washer and saturated with Casein 5% (Sigma) in PBS for 90 minutes at room temperature (25±1° C.). For binding, each DAW01 clone and rhCD40 Fc were added to the plate, starting from 1 μM, 1 in 3 and 300 nM, 1 in 3 respectively. Plates were washed 3 times as described previously. […] Then, cystatin A biotinylated polyclonal antibody (BAF1407) was diluted to a concentration of 0.05 μg/ml in dilution buffer (PBS, 1% casein, 0.01% Tween 20) and the plate was incubated for 90 minutes at room temperature (25±1° C.). PolyHRP-streptavidin was then diluted in dilution buffer and the plates were incubated for 90 minutes at room temperature (25±1° C.). The plates were then washed 3 times as described previously, and the substrate (TMB, Pierce Thermo-Scientific) was added to the plates for 10 minutes. The reaction was stopped using an acidic solution, and plates were read at 450-630 nm.

[12] = biological target: T5, human CD40L expressed on HEK293 cells (human, UniProt P29965 1-261); assay: flow cytometry, clone at 1 uM on hCD40L-HEK293 cells (hatched), HEK-293 negative cells as control (open), detection anti-Cystatin A + A488 anti-goat
T5 construct: whole, on cells; also called hCD40L-HEK293 cells; hCD40L-HEK-293 cells (Crown Biosciences, C2041)
T5 sequence (looked up): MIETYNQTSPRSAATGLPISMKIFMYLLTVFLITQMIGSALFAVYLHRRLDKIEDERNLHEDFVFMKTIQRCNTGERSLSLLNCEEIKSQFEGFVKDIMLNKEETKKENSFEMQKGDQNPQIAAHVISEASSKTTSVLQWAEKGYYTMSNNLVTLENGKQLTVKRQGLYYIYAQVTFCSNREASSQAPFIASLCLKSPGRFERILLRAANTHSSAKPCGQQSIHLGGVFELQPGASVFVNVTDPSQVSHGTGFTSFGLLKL
Protocol: The cells were resuspended in PBS and 200,000 cells per well were dispatched in a round bottom 96 well plate. Cells were washed with PBS. The stefin A protein variant and controls were diluted in staining buffer containing 1% BSA, 0.01% Sodium Azide (NaN3), 2 mM EDTA in DPBS in duplicate and added on cells for staining for approximately 60 min at 4±1° c. Cells were washed and the secondary anti-Cystatin A (R&D, AF1407) was diluted 0.2 mg/ml in staining buffer and added on cells for staining for approximately 45 min at 4±1° c. Cells were washed again and the detection antibody A488 anti-goat (ThermoFisher, A21467) was diluted 1:500 in staining buffer and added to the cells for staining (approximately 30 min at 4±1° C.). Finally, the cells were washed and live and dead cells were stained using L/D stain Zombie Yellow (Biolegend, 423103) diluted in staining buffer for 10 min at 4±1° C. Cells were washed again and fixation buffer (R&D) was added to each well for 10 min at 4±1° C. then PBS with EDTA (Lonza) was added prior reading the plate on the flow cytometer (Guava 12 HT, Millipore). Dead cells were excluded, and the fluorescent green channel (488 nm/525/30) was acquired. Results were analyzed using Incyte and data were plotted using GraphPad.

T4 sequence (P02768 25-609): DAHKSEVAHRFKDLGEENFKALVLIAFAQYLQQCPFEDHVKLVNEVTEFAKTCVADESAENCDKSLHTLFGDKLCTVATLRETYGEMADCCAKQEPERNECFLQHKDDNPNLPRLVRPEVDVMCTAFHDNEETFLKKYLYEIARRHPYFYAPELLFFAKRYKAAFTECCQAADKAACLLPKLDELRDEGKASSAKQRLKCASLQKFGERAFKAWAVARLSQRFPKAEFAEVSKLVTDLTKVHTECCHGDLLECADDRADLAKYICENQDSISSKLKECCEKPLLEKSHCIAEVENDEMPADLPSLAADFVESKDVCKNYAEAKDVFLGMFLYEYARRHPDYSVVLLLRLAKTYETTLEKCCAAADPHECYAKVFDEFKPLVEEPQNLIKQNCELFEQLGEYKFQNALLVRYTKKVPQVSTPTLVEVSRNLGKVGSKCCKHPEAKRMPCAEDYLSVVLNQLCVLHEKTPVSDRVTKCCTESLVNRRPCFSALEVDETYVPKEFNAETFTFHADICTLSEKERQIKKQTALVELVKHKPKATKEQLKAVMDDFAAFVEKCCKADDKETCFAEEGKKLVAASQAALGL

IC50, HEK-Blue CD40L cell assay [1]: 0.303 nM and 0.4 nM
IC50 (read off the curve) [2]: ~0.3 nM and ~0.4 nM
EC50 [3]: 0.0039 nM
EC50 [4]: 0.0053 nM
B1: XT75 anti-CD40L stefin A protein variant secreted by gene-introduced MSC (eMSC) (designed binder)
chain: IPGGLSEAKPATPEIQEIVDKVKPQLEEKTGETYGKLEAVQYKTQVVHYYVHYNDQGTNYYIKVRAGDNKYMHLKVFKSLWGENLFAKWEDLVLTGYQVDKNKDDELTGFAEAAAKEAAAKEAAAKEAAAKEAAAKEAAAKMIPGGLSEAKPATPEIQEIVDKVKPQLEEKTGETYGKLEAVQYKTQVVHYYVHYNDQGTNYYIKVRAGDNKYMHLKVFKSLWGENLFAKWEDLVLTGYQVDKNKDDELTGFAEAAAKEAAAKEAAAKEAAAKEAAAKEAAAKMIPGGLSEAKPATPEIQEIVDKVKPQLEEKTGETYGKLEAVQYKTQVVHYYVHYNDQGTNYYIKVRAGDNKYMHLKVFKSLWGENLFAKWEDLVLTGYQVDKNKDDELTGFAEAAAKEAAAKEAAAKEAAAKEAAAKEAAAKMIPRGLSEAKPATPEIQEIVDKVKPQLEEKTGETYGKLEAVQYKTQVLANFFQRRWPGSTNYYIKVRAGDNKYMHLKVFNGPWKFRNTDRGADRVLTGYQVDKNKDDELTGF
notes: also called eMSC (XT75, w/EF1A); eMSC (XT75, w/CBh)

EC50 [5]: 0.04 nM
EC50 [6]: 0.02 nM
binding result [7]: binds
IC50 (read off the curve) [8]: ~8 nM
IC50 (read off the curve) [9]: ~4 nM
EC50 [10]: 0.41 nM
B2: clone-230 XT75 (trimer with a rigid linker and an HSA binding stefin A protein variant) (designed binder)
chain: B1 chain
notes: also called AFX01-230 XT75

EC50 [5]: 0.1 nM
EC50 [6]: 0.07 nM
IC50 (read off the curve) [8]: ~2 nM
IC50 (read off the curve) [9]: ~3 nM
EC50 [10]: 0.8 nM
B3: clone-230 XT76 (tetramer with a rigid linker and an HSA binding stefin A protein variant) (designed binder)
chain: IPGGLSEAKPATPEIQEIVDKVKPQLEEKTGETYGKLEAVQYKTQVVHYYVHYNDQGTNYYIKVRAGDNKYMHLKVFKSLWGENLFAKWEDLVLTGYQVDKNKDDELTGFAEAAAKEAAAKEAAAKEAAAKEAAAKEAAAKMIPGGLSEAKPATPEIQEIVDKVKPQLEEKTGETYGKLEAVQYKTQVVHYYVHYNDQGTNYYIKVRAGDNKYMHLKVFKSLWGENLFAKWEDLVLTGYQVDKNKDDELTGFAEAAAKEAAAKEAAAKEAAAKEAAAKEAAAKMIPGGLSEAKPATPEIQEIVDKVKPQLEEKTGETYGKLEAVQYKTQVVHYYVHYNDQGTNYYIKVRAGDNKYMHLKVFKSLWGENLFAKWEDLVLTGYQVDKNKDDELTGFAEAAAKEAAAKEAAAKEAAAKEAAAKEAAAKMIPGGLSEAKPATPEIQEIVDKVKPQLEEKTGETYGKLEAVQYKTQVVHYYVHYNDQGTNYYIKVRAGDNKYMHLKVFKSLWGENLFAKWEDLVLTGYQVDKNKDDELTGFAEAAAKEAAAKEAAAKEAAAKEAAAKEAAAKMIPRGLSEAKPATPEIQEIVDKVKPQLEEKTGETYGKLEAVQYKTQVLANFFQRRWPGSTNYYIKVRAGDNKYMHLKVFNGPWKFRNTDRGADRVLTGYQVDKNKDDELTGF

EC50 [11]: 31.2 nM
% Positive [12]: 95.7%
MFI [12]: 7780 MFI
B4: stefin A protein variant clone 268 (designed binder)
chain: MIPGGLSEAKPATPEIQEIVDKVKPQLEEKTGETYGKLEAVQYKTQVVGDSYWEYVSGTNYYIKVRAGDNKYMHLKVFKSLPYRWRPDHAEDLVLTGYQVDKNKDDELTGF
